Test results taken from the supplement of paper PMC7877785.
± gives the uncertainty stated by the source.

Test: self-splicing fitness, log relative to wild type (ln ratio); higher = more splicing; Tetrahymena group I intron in knt gene, E. coli kanamycin selection, DiMSum; sequences stand for … in CUCUCU…GGAGGGAAAAGUUAUCAGGCAUGCACCUGGUAGCUAGUCUUUAAACCAAUAGAUUGCAUCGGUUUAAAAGGCAAGACCGUCAAAUUGCGGGAAAGGGGUCAACAGCCGUUCAGUACCAAGUCUCAGGGGAAACUUUGAGAUGGCCUUGCAAAGGGUAUGGUAAUAAGCUGACGGACAUGGUCCUAACCACGCAGCCAAGUCCUAAGUCAACAGAUCUUCUGUUGAUAUGGAUGCAGUUCACAGACUAAAUGUCGGUCGGGGAAGAUGUAUUCUUCUCAUAAGAUAUAGUCGGACCUCUCCUUAAUGGGAGCUAGCGGAUGAAGUGAUGCAACACUGGAGCCGCUGGGAACUAAUUUGUAUGCGAAAGUAUAUUGAUUAGUUUUGGAGUACUCGUGGUCG
Outline: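 DiMSum derived fitness as the error-weighted combination of fold changes across replicates, kanamycin versus no kanamycin, normalised to wild type. E. coli BL21(DE3) held the library, which randomised all eight P1ex-region intron nucleotides within the knt kanamycin-resistance gene on pET-22b(+). Six replicate transformations grew overnight at 37°C or 30°C on LB agar with or without 25 μg/mL kanamycin, also containing 100 μg/mL carbenicillin, 50 μM IPTG and 0.2% rhamnose, and pooled colonies were amplicon-sequenced on an Illumina HiSeq 2500.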

## GAGAAGCAAUAUUACGGUCG
30 °C
  self-splicing fitness (ln): -0.943 ± 0.11
37 °C
  self-splicing fitness (ln): -0.253 ± 0.11

## GAGAAGCAAUAUUACGUAAC
30 °C
  self-splicing fitness (ln): -1.62 ± 0.11
37 °C
  self-splicing fitness (ln): -0.536 ± 0.12

## GAGAAGCAAUAUUACGUCCC
30 °C
  self-splicing fitness (ln): -0.258 ± 0.28
37 °C
  self-splicing fitness (ln): -0.337 ± 0.29

## GAGAAGCAAUAUUACGUUAC
30 °C
  self-splicing fitness (ln): -3.39 ± 0.27
37 °C
  self-splicing fitness (ln): -3.05 ± 0.35

## GAGAAGCAAUAUUACGUUGU
30 °C
  self-splicing fitness (ln): -3.19 ± 0.19
37 °C
  self-splicing fitness (ln): -3.31 ± 0.32

## GAGCAGCAAUAUUACGACCA
30 °C
  self-splicing fitness (ln): -1.17 ± 0.14
37 °C
  self-splicing fitness (ln): -1.02 ± 0.15

## GAGCAGCAAUAUUACGACGG
30 °C
  self-splicing fitness (ln): -4.27 ± 0.26
37 °C
  self-splicing fitness (ln): -2.18 ± 0.17

## GAGCAGCAAUAUUACGAGAG
37 °C
  self-splicing fitness (ln): -2.19 ± 0.28

## GAGCAGCAAUAUUACGAUUU
30 °C
  self-splicing fitness (ln): -0.179 ± 0.068
37 °C
  self-splicing fitness (ln): -0.211 ± 0.094

## GAGCAGCAAUAUUACGCACA
30 °C
  self-splicing fitness (ln): -0.256 ± 0.21
37 °C
  self-splicing fitness (ln): -0.415 ± 0.14

## GAGCAGCAAUAUUACGCACG
30 °C
  self-splicing fitness (ln): -1.11 ± 0.061
37 °C
  self-splicing fitness (ln): -0.692 ± 0.083

## GAGCAGCAAUAUUACGCAUC
30 °C
  self-splicing fitness (ln): -3.22 ± 0.2
37 °C
  self-splicing fitness (ln): -3.08 ± 0.37

## GAGCAGCAAUAUUACGCCUG
30 °C
  self-splicing fitness (ln): -2.2 ± 0.19
37 °C
  self-splicing fitness (ln): -2.32 ± 0.42

## GAGCAGCAAUAUUACGCGCG
30 °C
  self-splicing fitness (ln): -1.25 ± 0.1
37 °C
  self-splicing fitness (ln): 0.406 ± 0.12

## GAGCAGCAAUAUUACGCUGU
30 °C
  self-splicing fitness (ln): -3.32 ± 0.18
37 °C
  self-splicing fitness (ln): -2.52 ± 0.19

## GAGCAGCAAUAUUACGGACG
30 °C
  self-splicing fitness (ln): -2.19 ± 0.42
37 °C
  self-splicing fitness (ln): -1.72 ± 0.33

## GAGCAGCAAUAUUACGGAUU
30 °C
  self-splicing fitness (ln): -1.2 ± 0.1
37 °C
  self-splicing fitness (ln): 0.538 ± 0.11

## GAGCAGCAAUAUUACGGCCA
30 °C
  self-splicing fitness (ln): -0.255 ± 0.097
37 °C
  self-splicing fitness (ln): -0.361 ± 0.14

## GAGCAGCAAUAUUACGGGAC
30 °C
  self-splicing fitness (ln): -2.82 ± 0.19
37 °C
  self-splicing fitness (ln): -2.74 ± 0.15

## GAGCAGCAAUAUUACGUAGG
30 °C
  self-splicing fitness (ln): -2.83 ± 0.13
37 °C
  self-splicing fitness (ln): -2.54 ± 0.2

## GAGCAGCAAUAUUACGUCAA
30 °C
  self-splicing fitness (ln): -1.14 ± 0.24
37 °C
  self-splicing fitness (ln): -2.12 ± 0.25

## GAGCAGCAAUAUUACGUCAG
30 °C
  self-splicing fitness (ln): -3.23 ± 0.21
37 °C
  self-splicing fitness (ln): -2.12 ± 0.26

## GAGCAGCAAUAUUACGUCGU
30 °C
  self-splicing fitness (ln): -1.35 ± 0.13
37 °C
  self-splicing fitness (ln): -2.39 ± 0.2

## GAGCAGCAAUAUUACGUCUC
30 °C
  self-splicing fitness (ln): -2.48 ± 0.15
37 °C
  self-splicing fitness (ln): -2.23 ± 0.22

## GAGCAGCAAUAUUACGUGAC
30 °C
  self-splicing fitness (ln): -2.38 ± 0.15
37 °C
  self-splicing fitness (ln): -1.64 ± 0.15

## GAGCAGCAAUAUUACGUGCC
30 °C
  self-splicing fitness (ln): -1.58 ± 0.41
37 °C
  self-splicing fitness (ln): -1.34 ± 0.26

## GAGCAGCAAUAUUACGUUAC
30 °C
  self-splicing fitness (ln): -2.55 ± 0.14
37 °C
  self-splicing fitness (ln): -1.75 ± 0.13

## GAGGAGCAAUAUUACGAAUG
37 °C
  self-splicing fitness (ln): -1.7 ± 0.43

## GAGGAGCAAUAUUACGACCG
37 °C
  self-splicing fitness (ln): -0.621 ± 0.31

## GAGGAGCAAUAUUACGACGG
30 °C
  self-splicing fitness (ln): -3.25 ± 0.3
37 °C
  self-splicing fitness (ln): -2.07 ± 0.31

## GAGGAGCAAUAUUACGAGAG
30 °C
  self-splicing fitness (ln): -2.77 ± 0.32
37 °C
  self-splicing fitness (ln): -2.76 ± 0.41

## GAGGAGCAAUAUUACGAGCA
30 °C
  self-splicing fitness (ln): -3.52 ± 0.48
37 °C
  self-splicing fitness (ln): -2.4 ± 0.46

## GAGGAGCAAUAUUACGAUAU
30 °C
  self-splicing fitness (ln): -1.34 ± 0.26
37 °C
  self-splicing fitness (ln): -2.53 ± 0.45

## GAGGAGCAAUAUUACGCAGA
30 °C
  self-splicing fitness (ln): -3.91 ± 0.34
37 °C
  self-splicing fitness (ln): -2.86 ± 0.32

## GAGGAGCAAUAUUACGCGGU
30 °C
  self-splicing fitness (ln): -3.21 ± 0.28
37 °C
  self-splicing fitness (ln): -2.76 ± 0.31

## GAGGAGCAAUAUUACGCUCA
30 °C
  self-splicing fitness (ln): -0.973 ± 0.24
37 °C
  self-splicing fitness (ln): -0.181 ± 0.27

## GAGGAGCAAUAUUACGGAAA
30 °C
  self-splicing fitness (ln): -3.13 ± 0.16
37 °C
  self-splicing fitness (ln): -2.94 ± 0.26

## GAGGAGCAAUAUUACGGCUA
30 °C
  self-splicing fitness (ln): -1.75 ± 0.12
37 °C
  self-splicing fitness (ln): -1.37 ± 0.11

## GAGGAGCAAUAUUACGGGAC
30 °C
  self-splicing fitness (ln): -2.42 ± 0.27
37 °C
  self-splicing fitness (ln): -2.41 ± 0.27

## GAGGAGCAAUAUUACGGGGG
30 °C
  self-splicing fitness (ln): -3.09 ± 0.27
37 °C
  self-splicing fitness (ln): -3.13 ± 0.47

## GAGGAGCAAUAUUACGUCGC
37 °C
  self-splicing fitness (ln): -1.54 ± 0.33

## GAGGAGCAAUAUUACGUGGU
30 °C
  self-splicing fitness (ln): -4.05 ± 0.34
37 °C
  self-splicing fitness (ln): -2.77 ± 0.33

## GAGGAGCAAUAUUACGUGUG
30 °C
  self-splicing fitness (ln): -2.33 ± 0.22
37 °C
  self-splicing fitness (ln): -2.54 ± 0.26

## GAGGAGCAAUAUUACGUGUU
30 °C
  self-splicing fitness (ln): -3.03 ± 0.21
37 °C
  self-splicing fitness (ln): -3.82 ± 0.42

## GAGGAGCAAUAUUACGUUCA
30 °C
  self-splicing fitness (ln): -1.18 ± 0.081
37 °C
  self-splicing fitness (ln): -0.275 ± 0.11

## GAGUAGCAAUAUUACGAAGG
37 °C
  self-splicing fitness (ln): -2.74 ± 0.44

## GAGUAGCAAUAUUACGACAG
30 °C
  self-splicing fitness (ln): -3.07 ± 0.44
37 °C
  self-splicing fitness (ln): -2.99 ± 0.24

## GAGUAGCAAUAUUACGACAU
30 °C
  self-splicing fitness (ln): -0.282 ± 0.014
37 °C
  self-splicing fitness (ln): -0.127 ± 0.033

## GAGUAGCAAUAUUACGACGG
30 °C
  self-splicing fitness (ln): -2.74 ± 0.2
37 °C
  self-splicing fitness (ln): -1.57 ± 0.25
